Three molecules from US20250283886A1 can be followed below.

The target of test [1] is … peptide containing N-terminal phenylalanine. The experiment in a line: table of pulse statistics of the single-molecule recognition experiment.
For test [2] the target is unchanged. The test is described as follows: single-molecule recognition of immobilized peptide, 500 nM of each binder.
Test [3] addresses peptide having an N-terminal tyrosine residue. The experiment in a line: single-molecule dwell time analysis, distribution of mean pulse durations, panel Tyr; filtered 0.00s≤dur≤20.00s and magnitude above baseline > 15.0.
Test [4] deals with polypeptides with a terminal leucine residue. The test is described as follows: single-molecule dwell time analysis, distribution of mean pulse durations, panel Leu; filtered 0.00s≤dur≤20.00s and magnitude above baseline > 15.0.
Test [5] has as its target peptide having an N-terminal tryptophan residue. The test is described as follows: single-molecule dwell time analysis, distribution of mean pulse durations, panel Trp; filtered 0.00s≤dur≤20.00s and magnitude above baseline > 15.0.
For test [6], the target named is peptide having an N-terminal phenylalanine residue. The experiment in a line: single-molecule dwell time analysis, distribution of mean pulse durations, panel Phe; filtered 0.00s≤dur≤20.00s and magnitude above baseline > 15.0.
The target of test [7] is polypeptides with a terminal leucine residue. The test is described as follows: single-molecule dwell time analysis.
For test [8] the target is unchanged.
Test [9] has the same target. This is another data set of the same source.

Values joined by “and” are separate entries in the source; they are usually repeats but may differ in a detail not shown here. Equal values may be shown once. Read-outs that look alike come from different tables or passages of the source.

B1: at ClpS1 (Agrobacterium tumifaciens ClpS1) labeled with Cy3, Q8UFN4 1-117 (protein)
chain: MIAEPICMQGEGDGEDGGTNRGTSVITRVKPKTKRPNLYRVLLLNDDYTPMEFVIHILERFFQKDREAATRIMLHVHQHGVGECGVFTYEVAETKVSQVMDFARQHQHPLQCVMEKK
B1: in [1], the N pulses is 98 and the median pulse width came to 0.63 s. In [2], the mean pulse duration stood at 1.3 s and the pulse rate was 8.1 pulses/min.

B2: A. tumefaciens ClpS1 (protein)
chain: MIAEPICMQGEGDGEDGGTNRGTSVITRVKPKTKRPNLYRVLLLNDDYTPMEFVIHILERFFQKDREAATRIMLHVHQHGVGECGVFTYEVAETKVSQVMDFARQHQHPLQCVMEKK
For B2, the mean pulse duration (value at the dashed line) in test [3] amounted to 0.69 s; in [4], 0.31 s; in test [5], 0.34 s; in test [6], 0.59 s.

B3: ClpS from Thermosynochoccus elongatus (teClpS), labeled (protein)
chain: MPQERQQVTRKHYPNYKVIVLNDDFNTFQHVAACLMKYIPNMTSDRAWELTNQVHYEGQAIVWVGPQEQAELYHEQLLRAGLTMAPLEPE
B3 had a mean pulse duration in test [7] of 0.71 s. In addition, in test [8], the pulse duration M was 0.43 s and 0.5 s; the pulse duration µ is 0.68 s and 0.65 s. In test [9], the pulse duration M was 0.46 s and 0.63 s; the pulse duration Mo worked out at 0.5 s; the pulse duration µ was 0.74 s and 0.82 s.
